Legend:
Assay in all cases: ELISA, mAb at 10 nM
[1] = target: hu-M-IL1RAP-D1 construct, positions S21-Q133 (human)
[2] = target: hu-M-IL1RAP-D1D2 construct, positions S21-P237 (human)
[3] = target: hu-M-IL1RAP-D3 construct, positions K238-T367 (human)
hu-M-IL1RAP-D3 construct, positions K238-T367 (human), sequence (chain, as listed by the source limits assumed): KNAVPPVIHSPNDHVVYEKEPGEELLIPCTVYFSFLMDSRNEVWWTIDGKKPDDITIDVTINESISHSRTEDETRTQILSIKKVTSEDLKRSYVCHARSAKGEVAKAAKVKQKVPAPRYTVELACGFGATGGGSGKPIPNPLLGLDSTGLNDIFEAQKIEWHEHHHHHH

hu-M-IL1RAP-D1D2 construct, positions S21-P237 (human), sequence (chain, as listed by the source limits assumed): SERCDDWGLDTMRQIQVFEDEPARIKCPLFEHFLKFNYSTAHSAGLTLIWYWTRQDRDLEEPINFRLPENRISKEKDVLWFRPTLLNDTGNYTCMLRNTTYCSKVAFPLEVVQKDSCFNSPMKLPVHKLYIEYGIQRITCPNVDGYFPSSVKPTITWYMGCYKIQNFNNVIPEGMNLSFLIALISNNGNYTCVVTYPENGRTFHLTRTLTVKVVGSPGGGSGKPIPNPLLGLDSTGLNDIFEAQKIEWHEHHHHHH
hu-M-IL1RAP-D1 construct, positions S21-Q133 (human), sequence (chain, as listed by the source limits assumed): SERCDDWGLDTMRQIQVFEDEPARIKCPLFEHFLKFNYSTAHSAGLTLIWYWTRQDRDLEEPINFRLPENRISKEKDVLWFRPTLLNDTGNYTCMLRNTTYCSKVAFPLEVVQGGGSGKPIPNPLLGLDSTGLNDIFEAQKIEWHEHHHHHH

| Binder | A450 [1] [A450] | A450 [2] [A450] | A450 [3] [A450] |
| --- | --- | --- | --- |
| 10A11 (purified mAb from hybridoma 10A11) (antibody, V domains shown) VH: EVQLQQSGAELVKPGASVRLSCTSSGFNIKDYFMHWVKQRTEQGLEWVGRIDPEDGETQYAPNFQDKATITVDTSSNTVYLQLSSLTSEDTAVYYCFRPLYYGNSPWFAYWGQGTLVTVSP VL: DIQMTQTTSSLSASLGDRVTISCRASQDISNYLNWYQQKPDGTVKLLIYYTSTLHSGVPSRFSGSGSGTDYSLTISNLEPEDIATYYCHQYSKFPPTFGSGTKLEIK | 0.046 | 0.046 | – |
| 8H1 (purified mAb from hybridoma 8H1) (antibody, V domains shown) VH: QVQLQQSGPELVKSGASVRISCKASGYAFSGSWMNWVKQRPGKGLEWIGRIYPGDGNTNYNGKFKDKATLTADKSSSTAFMQLSSLTSEDSAVYFCARDYYLFYFDYWGQGTTLTVSS VL: NIVMTQTPKFLPVAAEDRVIITCKASQDVSNEVAWYQQKPGQSPKLLMYYASNRYTGVPDRFTGSGSGTDFTFTISSVQVEDLAVYFCQQHYSSPLTFGAGTKLELK | 0.045 | – | 0.045 |
| 9D5 (purified mAb from hybridoma 9D5) (antibody, V domains shown) VH: QVQLQQSGAELARPGASVKFSCKASGYTFTSYWMQWVKQRPGQGLEWIGTIYPGDGNTRYTQKFKGKATLTADKSSSTAYMQLSGLASEDSAVYYCARGYFGNLVFDVWGAGTTVTVSS VL: DIKMTQSPSSMYASLGERVTITCKASQDINTYLSWFLQKPGKSPKTLIYRADRLVDGVPSRFSGGGSGQDYSLTISSLEYEDLGIYYCLQYDEFPYTFGSGTKLEIK | 0.047 | – | 0.045 |
| 11C5(Hy) (purified mAb from the 11C5 hybridoma) (antibody, V domains shown) VH: EVQLVESGGGLVKPGGSLKLSCAASGFTFSNYAMSWVRQTPEKRLEWVATVTEGGDYNYCLDDVKGRFTISRDNANDNLYLQMSHLKSEDSARYYCARDRWPYFFDYWGQGTTLTVSS VL: DIQMTQSPASLSVSVGETVTITCRASENIYSNLAWYQQKQGRSPQLLVYGAKNLADGVPSRFSGSGSGTQYSLNINSLQSEDFGTYYCQHFWTTPRTFGGGTKLEIK | 0.048 | 0.048 | – |
| 13D8 (purified mAb from hybridoma 13D8) (antibody, V domains shown) VH: EVQLVESGGGLVKPGGSLKLSCTASGFTFSNYAMSWVRQTPEKRLEWVATISDGGNYTYYPDNVKGRFTISRDIAKNNLYLQMSHLKSEDTAMYYCARDRWPYFFDFWGQGTTLTVSS VL: DIQMTQSPASLSVSVGETVTITCRASDNIYSNLAWYQEKQGKSPQLLVYGATNLADGVPSRFSGSGSGTQYSLKINSLQSEDFGSYYCQHFWTTPRSFGGGTKLELK | 0.046 | 0.044 | – |
